Patent US20020151471A1 (published 2002)

Tests used:
Assay in all cases: TF binding assay; method not stated in the example
[1] = molecular target: T1, Factor VII preparation 1 (recombinant human FVII produced serum-free in CHO clone E11, Example 3) (human, UniProt P08709 61-466, N-linked oligosaccharide chains (Factor VII is normally glycosylated at Asn 145 and Asn 322); 98% of chains contain sialic acid, 6% contain fucosylated antenna)
T1 construct: The preparations differ only in glycoform pattern
T1 sequence (looked up): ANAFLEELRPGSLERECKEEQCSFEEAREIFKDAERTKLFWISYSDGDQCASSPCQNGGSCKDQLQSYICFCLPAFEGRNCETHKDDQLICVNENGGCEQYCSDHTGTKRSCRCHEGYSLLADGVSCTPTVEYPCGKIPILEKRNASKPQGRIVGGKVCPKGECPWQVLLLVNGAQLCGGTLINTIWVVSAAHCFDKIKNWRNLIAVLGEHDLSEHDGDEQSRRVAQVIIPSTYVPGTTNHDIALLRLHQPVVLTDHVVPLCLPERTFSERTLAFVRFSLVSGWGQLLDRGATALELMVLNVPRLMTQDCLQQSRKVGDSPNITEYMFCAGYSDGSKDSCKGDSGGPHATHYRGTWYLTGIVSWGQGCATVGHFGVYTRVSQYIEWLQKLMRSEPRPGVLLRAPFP

[2] = molecular target: T2, Factor VII preparation 2 (recombinant human FVII produced serum-free in CHO clone E11, Example 3) (human, UniProt P08709 61-466, N-linked oligosaccharide chains (Factor VII is normally glycosylated at Asn 145 and Asn 322); 94% of chains contain sialic acid, 13% contain fucosylated antenna)
T2 construct: The preparations differ only in glycoform pattern
T2 sequence (looked up): T1 sequence (looked up)

[3] = molecular target: T3, Factor VII preparation 5 (recombinant human FVII produced serum-free in CHO clone E11, Example 3) (human, UniProt P08709 61-466, N-linked oligosaccharide chains (Factor VII is normally glycosylated at Asn 145 and Asn 322); 86% of chains contain sialic acid, 21% contain fucosylated antenna)
T3 construct: The preparations differ only in glycoform pattern
T3 sequence (looked up): T1 sequence (looked up)

B1: tissue factor (TF) (receptor, UniProt P13726 33-251, looked up)
chain: SGTTNTVAAYNLTWKSTNFKTILEWEPKPVNQVYTVQISTKSGDWKSKCFYTTDTECDLTDEIVKDVKQTYLARVFSYPAGNVESTGSAGEPLYENSPEFTPYLETNLGQPTIQSFEQVGTKVNVTVEDERTLVRRNNTFLSLRDVFGKDLIYTLYYWKSSSSGKKTAKTNTNEFLIDVDKGENYCFSVQAVIPSRTVNRKSTDSPVECMGQEKGEFRE
[1]
  Kd: 2.8 nM
[2]
  Kd: 2 nM
[3]
  Kd: 2.8 nM
